Experimental data: patent US20250262210A1 (TRUSTEES OF COLUMBIA UNIVERSITY IN THE CITY OF NEW YORK, published 2025)

How the values were obtained:
Assay in all cases: IP/MS, LZTR1 wild type-FLAG, U87
UBE4B = target: T1, UBE4B (human, UniProt O95155 1-1302, limits assumed)
T1 sequence (looked up): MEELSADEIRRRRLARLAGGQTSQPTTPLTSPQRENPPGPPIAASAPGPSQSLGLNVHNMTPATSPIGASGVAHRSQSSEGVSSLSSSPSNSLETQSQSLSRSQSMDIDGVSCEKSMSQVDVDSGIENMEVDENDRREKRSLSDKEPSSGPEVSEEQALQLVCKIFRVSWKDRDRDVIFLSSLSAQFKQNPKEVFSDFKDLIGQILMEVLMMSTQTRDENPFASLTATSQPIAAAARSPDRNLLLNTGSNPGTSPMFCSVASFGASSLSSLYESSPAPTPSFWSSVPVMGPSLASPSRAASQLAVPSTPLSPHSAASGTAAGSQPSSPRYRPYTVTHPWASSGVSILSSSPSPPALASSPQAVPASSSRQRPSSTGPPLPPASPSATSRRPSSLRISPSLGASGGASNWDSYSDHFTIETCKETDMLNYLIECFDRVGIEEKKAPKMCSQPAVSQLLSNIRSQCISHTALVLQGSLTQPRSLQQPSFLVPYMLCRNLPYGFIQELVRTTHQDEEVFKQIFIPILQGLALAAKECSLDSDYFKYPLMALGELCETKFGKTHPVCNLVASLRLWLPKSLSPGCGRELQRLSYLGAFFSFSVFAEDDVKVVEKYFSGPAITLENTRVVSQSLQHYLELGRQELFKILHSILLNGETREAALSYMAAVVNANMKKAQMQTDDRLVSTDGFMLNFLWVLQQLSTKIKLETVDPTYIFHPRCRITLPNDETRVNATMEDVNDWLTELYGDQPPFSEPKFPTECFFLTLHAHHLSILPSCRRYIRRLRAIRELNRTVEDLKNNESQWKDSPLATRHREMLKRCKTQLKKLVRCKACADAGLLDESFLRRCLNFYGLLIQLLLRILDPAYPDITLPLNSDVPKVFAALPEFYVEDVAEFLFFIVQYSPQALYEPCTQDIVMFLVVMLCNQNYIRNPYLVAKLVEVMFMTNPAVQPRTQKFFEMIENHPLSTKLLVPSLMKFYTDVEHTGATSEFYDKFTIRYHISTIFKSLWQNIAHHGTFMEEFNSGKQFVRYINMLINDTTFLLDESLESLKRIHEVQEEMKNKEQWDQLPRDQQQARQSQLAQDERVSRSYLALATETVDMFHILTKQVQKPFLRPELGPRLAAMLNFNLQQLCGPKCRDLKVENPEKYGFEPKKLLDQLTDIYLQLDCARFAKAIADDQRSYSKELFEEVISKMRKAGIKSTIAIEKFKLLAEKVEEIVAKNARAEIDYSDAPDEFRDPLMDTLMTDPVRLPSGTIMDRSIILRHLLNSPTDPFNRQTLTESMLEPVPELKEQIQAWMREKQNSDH
Outline: (§1)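 Gel slices were reduced with 5 mM DTT, alkylated with 11 mM IAA and digested overnight at 37° C. with trypsin. Peptides were analysed on an Orbitrap Fusion Tribrid by LC-MS/MS.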

RUSC2 = RUSC2 (human, UniProt Q8N2Y8 1-1516)
Outline: as §1

INTS1 = INTS1 (human, UniProt Q8N201 1-2190)
INTS1, sequence (Q8N201 whole entry): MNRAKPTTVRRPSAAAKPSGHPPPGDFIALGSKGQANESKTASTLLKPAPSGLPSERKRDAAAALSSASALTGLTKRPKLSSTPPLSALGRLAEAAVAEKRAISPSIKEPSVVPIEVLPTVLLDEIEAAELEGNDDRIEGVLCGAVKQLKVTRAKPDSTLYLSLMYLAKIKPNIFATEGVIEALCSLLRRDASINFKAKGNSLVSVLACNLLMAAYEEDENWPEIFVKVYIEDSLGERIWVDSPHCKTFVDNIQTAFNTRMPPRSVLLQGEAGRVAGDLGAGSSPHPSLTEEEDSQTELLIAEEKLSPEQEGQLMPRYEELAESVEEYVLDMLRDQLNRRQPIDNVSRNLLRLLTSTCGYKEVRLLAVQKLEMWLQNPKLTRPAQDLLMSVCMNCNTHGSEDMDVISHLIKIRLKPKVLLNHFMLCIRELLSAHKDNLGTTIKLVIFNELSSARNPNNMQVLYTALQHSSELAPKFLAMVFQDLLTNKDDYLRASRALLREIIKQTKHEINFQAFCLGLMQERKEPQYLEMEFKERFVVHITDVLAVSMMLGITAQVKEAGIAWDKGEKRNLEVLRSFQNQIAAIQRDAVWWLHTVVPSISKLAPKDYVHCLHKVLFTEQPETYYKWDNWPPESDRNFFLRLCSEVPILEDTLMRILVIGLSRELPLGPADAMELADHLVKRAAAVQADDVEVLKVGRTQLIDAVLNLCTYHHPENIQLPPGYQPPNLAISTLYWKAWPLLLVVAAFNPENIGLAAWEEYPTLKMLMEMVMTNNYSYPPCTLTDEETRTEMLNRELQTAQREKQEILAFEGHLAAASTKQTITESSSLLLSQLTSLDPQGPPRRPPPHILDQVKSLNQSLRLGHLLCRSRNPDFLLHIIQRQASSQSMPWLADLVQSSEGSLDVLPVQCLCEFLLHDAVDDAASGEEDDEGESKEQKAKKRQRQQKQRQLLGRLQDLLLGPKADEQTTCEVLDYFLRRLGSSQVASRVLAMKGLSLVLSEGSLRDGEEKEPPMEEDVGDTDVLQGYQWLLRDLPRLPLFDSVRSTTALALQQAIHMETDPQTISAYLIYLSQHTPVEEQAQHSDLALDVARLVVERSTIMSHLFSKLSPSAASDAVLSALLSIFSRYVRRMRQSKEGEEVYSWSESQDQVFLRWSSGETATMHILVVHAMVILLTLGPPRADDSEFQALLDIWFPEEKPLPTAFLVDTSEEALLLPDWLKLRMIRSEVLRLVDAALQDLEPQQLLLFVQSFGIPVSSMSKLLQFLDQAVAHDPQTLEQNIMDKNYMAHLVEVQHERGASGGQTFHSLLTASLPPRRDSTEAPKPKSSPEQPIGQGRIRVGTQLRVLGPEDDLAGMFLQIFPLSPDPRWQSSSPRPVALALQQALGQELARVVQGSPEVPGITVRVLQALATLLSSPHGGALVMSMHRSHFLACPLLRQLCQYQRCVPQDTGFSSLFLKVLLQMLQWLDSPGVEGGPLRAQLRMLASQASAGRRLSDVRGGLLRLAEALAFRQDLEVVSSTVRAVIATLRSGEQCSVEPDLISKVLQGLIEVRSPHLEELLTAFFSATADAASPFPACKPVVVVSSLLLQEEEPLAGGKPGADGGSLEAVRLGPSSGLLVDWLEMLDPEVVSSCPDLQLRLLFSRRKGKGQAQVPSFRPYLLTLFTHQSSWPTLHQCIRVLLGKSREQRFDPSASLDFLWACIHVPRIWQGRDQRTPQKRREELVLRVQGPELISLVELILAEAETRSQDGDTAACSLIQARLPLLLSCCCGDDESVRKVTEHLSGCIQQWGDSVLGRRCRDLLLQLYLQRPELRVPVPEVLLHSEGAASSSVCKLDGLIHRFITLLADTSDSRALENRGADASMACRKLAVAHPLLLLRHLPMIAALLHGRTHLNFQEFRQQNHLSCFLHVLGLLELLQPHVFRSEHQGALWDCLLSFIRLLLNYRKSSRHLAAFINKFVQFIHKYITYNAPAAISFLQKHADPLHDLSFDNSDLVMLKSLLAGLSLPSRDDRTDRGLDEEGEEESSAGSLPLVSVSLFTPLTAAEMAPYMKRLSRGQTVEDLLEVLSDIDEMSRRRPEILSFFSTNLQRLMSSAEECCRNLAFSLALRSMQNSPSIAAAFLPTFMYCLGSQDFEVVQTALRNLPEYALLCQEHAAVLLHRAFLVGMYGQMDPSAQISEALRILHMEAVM
Outline: as §1

PTPN23 = PTPN23 (human, UniProt Q9H3S7 1-1636)
PTPN23, sequence (Q9H3S7 whole entry): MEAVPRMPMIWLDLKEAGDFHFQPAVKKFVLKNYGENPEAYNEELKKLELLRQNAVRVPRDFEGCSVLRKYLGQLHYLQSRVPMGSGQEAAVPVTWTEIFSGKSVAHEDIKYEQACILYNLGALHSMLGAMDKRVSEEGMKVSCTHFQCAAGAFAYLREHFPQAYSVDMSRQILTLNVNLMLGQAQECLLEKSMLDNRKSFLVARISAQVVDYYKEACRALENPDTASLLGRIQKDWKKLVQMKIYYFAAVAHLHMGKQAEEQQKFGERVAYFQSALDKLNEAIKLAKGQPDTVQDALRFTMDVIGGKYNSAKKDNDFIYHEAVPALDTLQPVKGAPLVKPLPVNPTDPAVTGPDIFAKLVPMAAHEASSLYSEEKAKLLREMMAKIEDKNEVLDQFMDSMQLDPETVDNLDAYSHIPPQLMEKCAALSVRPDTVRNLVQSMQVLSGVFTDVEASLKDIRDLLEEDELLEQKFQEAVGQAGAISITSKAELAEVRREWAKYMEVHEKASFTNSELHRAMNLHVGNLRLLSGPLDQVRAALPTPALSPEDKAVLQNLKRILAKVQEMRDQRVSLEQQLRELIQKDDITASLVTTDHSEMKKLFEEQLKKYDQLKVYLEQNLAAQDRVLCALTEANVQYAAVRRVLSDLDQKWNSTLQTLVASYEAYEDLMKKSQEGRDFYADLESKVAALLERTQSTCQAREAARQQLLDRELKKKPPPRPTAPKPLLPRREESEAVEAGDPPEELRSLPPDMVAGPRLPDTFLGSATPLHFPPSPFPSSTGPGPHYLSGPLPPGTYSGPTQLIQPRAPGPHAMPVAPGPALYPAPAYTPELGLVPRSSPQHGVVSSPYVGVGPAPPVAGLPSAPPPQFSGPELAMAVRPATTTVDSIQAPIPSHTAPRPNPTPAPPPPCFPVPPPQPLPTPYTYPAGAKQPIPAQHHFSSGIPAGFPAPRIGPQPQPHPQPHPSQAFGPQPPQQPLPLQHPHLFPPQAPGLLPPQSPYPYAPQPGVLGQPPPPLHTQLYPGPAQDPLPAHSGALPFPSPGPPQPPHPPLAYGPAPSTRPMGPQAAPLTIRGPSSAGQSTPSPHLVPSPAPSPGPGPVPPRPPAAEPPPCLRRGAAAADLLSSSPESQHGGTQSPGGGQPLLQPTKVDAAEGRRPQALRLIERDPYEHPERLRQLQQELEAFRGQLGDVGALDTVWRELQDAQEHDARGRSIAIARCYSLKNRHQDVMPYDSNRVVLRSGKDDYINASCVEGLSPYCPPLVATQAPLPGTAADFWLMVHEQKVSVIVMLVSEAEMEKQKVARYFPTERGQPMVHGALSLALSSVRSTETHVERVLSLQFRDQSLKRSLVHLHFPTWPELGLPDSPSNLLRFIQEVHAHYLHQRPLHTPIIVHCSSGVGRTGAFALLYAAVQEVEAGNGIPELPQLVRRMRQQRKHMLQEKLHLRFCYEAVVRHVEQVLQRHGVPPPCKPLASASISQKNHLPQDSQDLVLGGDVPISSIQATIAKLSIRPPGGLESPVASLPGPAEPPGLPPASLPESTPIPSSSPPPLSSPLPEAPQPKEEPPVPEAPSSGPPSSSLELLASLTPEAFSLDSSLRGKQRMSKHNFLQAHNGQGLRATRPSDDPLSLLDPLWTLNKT
Outline: as §1

Measured: binding result

B1: LZTR1-FLAG (other, human, UniProt Q8N653 1-840, looked up)
chain: MAGPGSTGGQIGAAALAGGARSKVAPSVDFDHSCSDSVEYLTLNFGPFETVHRWRRLPPCDEFVGARRSKHTVVAYKDAIYVFGGDNGKTMLNDLLRFDVKDCSWCRAFTTGTPPAPRYHHSAVVYGSSMFVFGGYTGDIYSNSNLKNKNDLFEYKFATGQWTEWKIEGRLPVARSAHGATVYSDKLWIFAGYDGNARLNDMWTIGLQDRELTCWEEVAQSGEIPPSCCNFPVAVCRDKMFVFSGQSGAKITNNLFQFEFKDKTWTRIPTEHLLRGSPPPPQRRYGHTMVAFDRHLYVFGGAADNTLPNELHCYDVDFQTWEVVQPSSDSEVGGAEVPERACASEEVPTLTYEERVGFKKSRDVFGLDFGTTSAKQPTQPASELPSGRLFHAAAVISDAMYIFGGTVDNNIRSGEMYRFQFSCYPKCTLHEDYGRLWESRQFCDVEFVLGEKEECVQGHVAIVTARSRWLRRKITQARERLAQKLEQEAAPVPREAPGVAAGGARPPLLHVAIREAEARPFEVLMQFLYTDKIKYPRKGHVEDVLLIMDVYKLALSFQLCRLEQLCRQYIEASVDLQNVLVVCESAARLQLSQLKEHCLNFVVKESHFNQVIMMKEFERLSSPLIVEIVRRKQQPPPRTPLDQPVDIGTSLIQDMKAYLEGAGAEFCDITLLLDGHPRPAHKAILAARSSYFEAMFRSFMPEDGQVNISIGEMVPSRQAFESMLRYIYYGEVNMPPEDSLYLFAAPYYYGFYNNRLQAYCKQNLEMNVTVQNVLQILEAADKTQALDMKRHCLHIIVHQFTKVSKLPTLRSLSQQLLLDIIDSLASHISDKQCAELGADI
notes: Expressed in HEK 293T, HeLa or U87 cells; used as cell lysate; also called LZTR1 wild type-FLAG; LZTR1 WT; not shown: FLAG tag at the C-terminus
binds: UBE4B | RUSC2 | INTS1 | PTPN23
